The record followed here is patent US20190330331A1 (BLOOM DIAGNOSTICS, published 2019).

The assay has as its target T1, recombinant yeast-expressed His-tagged full-length AMH comprising amino acids 26-560 of human AMH (human, UniProt P03971 26-560).
T1 construct: Bought protein (Antikörper Online, ABIN2524475); also called recombinant AMH; human Anti-Müllerian hormone
T1 sequence: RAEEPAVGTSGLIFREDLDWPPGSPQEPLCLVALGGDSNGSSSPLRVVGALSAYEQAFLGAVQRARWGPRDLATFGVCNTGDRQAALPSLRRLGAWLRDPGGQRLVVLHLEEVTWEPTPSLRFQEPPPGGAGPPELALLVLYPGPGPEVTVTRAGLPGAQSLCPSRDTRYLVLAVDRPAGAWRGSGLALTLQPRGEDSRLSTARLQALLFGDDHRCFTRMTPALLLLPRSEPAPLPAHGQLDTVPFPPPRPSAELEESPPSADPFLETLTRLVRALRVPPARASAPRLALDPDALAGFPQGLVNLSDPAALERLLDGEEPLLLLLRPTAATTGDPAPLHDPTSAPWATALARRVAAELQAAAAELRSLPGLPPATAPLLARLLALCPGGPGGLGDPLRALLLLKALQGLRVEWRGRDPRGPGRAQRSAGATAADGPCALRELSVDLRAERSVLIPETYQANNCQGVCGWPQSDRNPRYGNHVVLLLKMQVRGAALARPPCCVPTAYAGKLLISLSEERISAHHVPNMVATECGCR
Nature of the assay: SPR (Biacore T200), AMH amine-coupled to the chip, antibody as analyte, bivalent-analyte model. On the procedure:
Surface-plasmon-resonance (SPR) measurements were performed using a Biacore T200 facility, control software version 2.0, and Series S sensor-chips carboxymethyl dextran chip type 5 (CMS, GE Healthcare Bio-Sciences AB, Uppsala, Sweden). The system was operating at 25° C. in running buffer HBSP (10 mmol/L 4-(2-hydroxyethyl)piperazine-1-ethanesulfonic acid (Hepes), 150 mmol/L NaCl., 0.05% Tween 20, pH 7.4). AMH was transferred to 10 mmol/L sodium acetate buffer pH 4.0 by passing it through a NAPS column (GE Healthcare) before immobilization by amine coupling (Biacore Sensor Surface Handbook). The carboxyl groups on the chip were activated with an mixture containing 200 mM 1-ethyl-3-(3-dimethylaminopropyl)-carbodiimide hydrochloride (EDC, Sigma-Aldrich) and 50 mM N hydroxysuccinimide (NHS, Fluka) for 180 s. AMH was then injected for 150 s at a concentration of 2.5 μg/mL in, at a flow of 10 μL/min and […]. Approximately 100 resonance units (RU) of AMH were covalently bound to the flow cell. Unreacted NHS esters were blocked with 1 mol/L ethanolamine pH 8.5 for 7 min. […] Association and dissociation rates and the binding constants of the antibodies were determined using the bivalent-analyte-binding model of the Biacore evaluation software (version 2.0). […]
For orientation: SPR reads the build-up and loss of mass on a sensor chip optically.

B1: G170-FC5 (antibody, V domains shown)
VH: EVKLVESGGGLVKPGGSLKLSCAASGFIFSTYTMSWVRQTPGKRLEWVATISSGGSYTYYPDSVKGRFTISRDNAKNTLYLQMSSLRSEDTAMYYCTRHGSDYRYDGFDYWGQGTTLTVSS
VL: DILMTQSPASLSVSVGETVTITCRASENIYSNLAWYQQKQGKSPQLLVYAATNLADGVPSRFSGSGSGTQYSLKINSLQSEDFGSYYCQHFWGTPFTFGSGTKLEIK
notes: kappa primers were used for the VL; also called anti-AMH G170-FC5; anti-AMH antibody
As for B1, the Kd was around 1 nM.
